# According to the DeepSol protein solubility set:
# Assay: soluble on expression in E. coli; label from the status in PepcDB or PDB records
row,Sequence,soluble on expression in E. coli
1,MAKKKIVAVIQARMGSSRLPGKVLMTVAGKPLLEHIIDRLRRSRTLDDIVIATSDKPCDDPLVDFAQTRGVTLVRGSEDNVLLRFNKAAEEVDADVIIRVTGDAPLVDPEVMDRLVRTLLQEGAEYCTIEAGINSIHEGFCTFTRGALKRLMTEAPDDPVAIEHVTAYFIAHPDKFHIARIPVGNEHRFKGARLSVDTPADVQFFDELYRLLGVPAGDADIADVVRLLRNNPHLLQINQHVYQKKATDRSHKVLIRCDGDSRTGLGHVVRCLALAGELREKQGCGIIFAMASGEPGMKMVRQADFPLERQEDADEGEWMDGLISRHHPDVLILDIRNDLPVEKVDSWREDGILVVGIDDPTPRRLAADLLFYPPIPQISELNWNNFNGEICSGWEWVLLRKQFCAPCPPRNNNPPALLLTMGGSDPANFTVRVLRVLDELQNDFETIVVIGAGFVHEEDLQQFLSQARRHYRIEREVSDMASLMRQADLAIASFGVTAYELAASGVPAVYLCLTPDHARSASKFVDDRLAFSCGVLEECSNERIIESTLSLLDSRELRHEVGRRACATVDGYGATRIATKIVEKLERMHSSHGLEHHHHHH,not soluble
2,MAKKKKEILFCDYYEDWVETYKVGAIEDVTLNKYYVAARQLRDICPKLLMSDFSRKDYQLIMNEYGKTHEKQTAKDFHHHIKAAILDAYHDGLLKSDPTYRAVIKGKELEHHHHHH,not soluble
3,MAKKKNVSVISVEKPTWFPLTDETGAFPVYGAPITIGTAVSIKPDVTTETTPDYGDSVVQDQYVAFGGAEVTLETNGYQNEVLAEITGGKKLKGGVLRSADDIASDGAFAYRRRKSNGKYRYTIFYKGKFALTSDETSTLEGSSVSYTHPEWTGSFVDVPGLGYMYSVDEDDEGVDLEMIKNWFTEVMDPRKENTTAVTGVTLDQTELNLKVGQTATLTPTITPDNASNKKYQFRSESEAIGTVTPIQGKVTAVGEGTTEIVVTTEDGNFTAKCTLNVTTAD,not soluble
4,MAKKPSKKKVKRQVASGRAYIHASYNNTIVTITDPDGNPITWSSGGVIGYKGSRKGTPYAAQLAALDAAKKAMAYGMQSVDVIVRGTGAGREQAIRALQASGLQVKSIVDDTPVPHNGCRPKKKFRKAS,soluble
5,MAKKSSGSAPSRASGRSGKQTTHFQVVHDATKHRAKRSKSSKSGDSKSSSQDASVKKILDHKLFNTHYVEYNVLLSNGRKMMATEFDFEGKKEQKLLADYKYKITNQDDDPDEDFAVEKIIAHRFSGKKNKPLFLVMWRGYPNPVSHSEMWENELSNCKDLLEAYKDSHDMKPPPVKKSNKKKGSKKSPKKSAKSKDDDSSDEEEEEEVKEKSPKKSSKSTKRAASDDDEEEEPVATKKSKKSKRAETPEEEDDEEEEVVKTPKKTKKSKRAETPEEEDEVEEEVVKTPKKSKSSKSPKKSKRAETSDEEDEDEEDEKEAPKSSKKQEKAKSSKRVAEDSGNEEEDQDNTSGSGSEGEEEEEEASSNGKRKSRH,not soluble
6,MAKKTSSKGKLPPGPFPLPIIGNLFQLELKNIPKSFTRLAQRFGPVFTLYVGSQRMVVMHGYKAVKEALLDYKDEFSGRGDLPAFHAHRDRGIIFNNGPTWKDIRRFSLTTLRNYGMGKQGNESRIQREAHFLLEALRKTQGQPFDPTFLIGCAPCNVIADILFRKHFDYNDEKFLRLMYLFNENFHLLSTPWLQLYNNFPSFLHYLPGSHRKVIKNVAEVKEYVSERVKEHHQSLDPNCPRDLTDCLLVEMEKEKHSAERLYTMDGITVTVADLFFAGTETTSTTLRYGLLILMKYPEIEEKLHEEIDRVIGPSRIPAIKDRQEMPYMDAVVHEIQRFITLVPSNLPHEATRDTIFRGYLIPKGTVVVPTLDSVLYDNQEFPDPEKFKPEHFLNENGKFKYSDYFKPFSTGKRVCAGEGLARMELFLLLCAILQHFNLKPLVDPKDIDLSPIHIGFGCIPPRYKLCVIPRSHHHH,soluble
7,MAKRPSTSKNPAEDDELIIDECRRKLDDDESNDVGAYFEDDNQQGTSYRTPFMPSHLGLIQDQSPDLTMKDLFNRKRSRPQSTGFIDHSQARYYDRYKQQEYTRRNDFMKYCHVCRKKTVGKLRVLPGDLRMRKVWILRSNLDEERSAELWLREMACEGSHGGEFCEAHFPAGSQHMKGNQLIPLDVRPEEGRHSVVEDIQFDFDAIHLQCVFCGRDGPLATMLPFIRNRAKRLRWIEQLASGNETYKNRLLHALRGGVTQFLCDYHISDSSFEINGFGEWRLLKNALPDPRLVASDKRGERKYLVDKCRDEMFWERAMWKSADLLSQNGTADDEDIIVGDDIRQFLTNSVPSEAEQVLHPILQIKQNVEKKLNEADLQPGTSGTSGESNATADNLKIGISEEGVEYSDDSDEENELIEKMGDIPYSKRLCQVCSAVEPIGNEFPNNFPYKFSIRTWPFDECRHKKWLEIMDWPPEFEESMKTLWQKRKTEGALSDSYHFCPINVCQSHLDFRQLPERMEEWHQTFCLLCDTCMSDKSFLVGIPHNFETRTKWANSLFPVKEGNKFQLKKISWLRRRFLRSKPTRYRICVYHFNRKAFQVNQDDKIVLDAEALPLPIDSDDFDLTPRGPNSVCKCVLCDDWKKVEDMVPFRAPHSEAERSFLIDIVIHSDKMTIKKALASLAKTNRPALICNIHFPDGIDPFSIIAERRLMYGVQSECVLCAHANDCTAMIPFPGPDDEKLRTKWINSMCREPWIYRYLSTRLEKPGRHYLCASHFNRNSLRYHAGLGLWRRAAACPVLACTTDEERQEVWDLSKSQPLYHPLILETFDDNGSGRLDYDDVLNFLGTERMRQIETELNFHGRNDSLLRRENRKKNTGRSFYADMPNIYEHGELQEVEDQMEGEEEEVVQEECIIYEEEHHLDEAEELEVIEEEEVVEEIVEQVVDDGVVVGEEM,not soluble
8,MAKTLYEKLFDSHIVYEAEGETPILYINRHLIHEVTSPQAFDGLRVANRQVRQVNKTFGTMDHSISTQVRDVNKLEGQAKIQVLELDKNTKATGIKLFDITTKEQGIVHVMGPEQGLTLPGMTIVCGDSHTATHGAFGALAFGIGTSEVEHVLATQTLKQARAKSMKIEVRGKVASGITAKDIILAIIGKTTMAGGTGHVVEFCGEAIQDLSMEGRMTVCNMAIEMGAKAGLIAPDETTFAYLKDRPHAPKGKDWEDAVAYWKTLKSDDDAQFDTVVTLEAKDIAPQVTWGTNPGQVISVNETIPNPQEMADPVQRASAEKALHYIGLEAGTNLKDIKVDQVFIGSCTNSRIEDLRAAAAVMKGRKKADNVKRILVVPGSGLVKEQAEKEGLDKIFIAAGAEWRNPGCSMCLGMNDDRLGEWERCASTSNRNFEGRQGRNGRTHLVSPAMAAAAGVFGKFVDIRDVTLN,not soluble
9,MALAEADDGAVVFGEEQEALVLKSWAVMKKDAANLGLRFFLKVFEIAPSAKQMFSFLRDSDVPLEKNPKLKTHAMSVFVMTCEAAAQLRKAGKVTVRETTLKRLGATHLRYGVADGHFEVTGFALLETIKEALPADMWSLEMKKAWAEAYSQLVAAIKREMKPDA,soluble
10,MALAMNRSITAITVTHNSAHTVRGALARLPPGVEIVCVDNASTDDLSTALSDLAVHRIDNPVNLGFGRACNIGAAAATGEYLLFINPDVRLGTDAVDALLQAAERYPNCGVFVPRTNTVDGRLWFREESEIDRLSGVSLPTRIRQVWGDCCVRFVNGGVFMIKRTLFLDTGGFDEDIFLYFEDDDLSYRLLQRDEPMILVSGAHAVHDIGTSVAQSTRSRIFRYRSKMRSEIHLRKKYGIAYSPFVDILRYSTKIGFYCLTLNRNRLINSLGRLIGIFDSILDRSRANRNGGYVALEHHHHHH,not soluble
11,MALDANDLLPPEKAFVPELAVADDGVNVRFRIADGYYMYQAKIVGKTNPADLLGQPSFSKGEEKEDEFFGRQTVYHHEAQVAFPYAKAVGEPYKLVLTYQGSAEAGVCYPPVDTEFDIFGNGTYHPQT,soluble
